The record followed here is the supplement of paper PMC9112550, “Optimization of the antimicrobial peptide Bac7 by deep mutational scanning” (BMC Biology, 2022).

This data set deals with Escherichia coli TOP10. In words: shrunken log2 fold change of peptide-encoding DNA abundance (4.5 h post-induction vs induction); higher = less antimicrobial activity (less host growth inhibition). The following applies: time post-induction: 4.5 h; library: site-saturation at positions 5, 18, 19, 20.
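Also: peptides expressed intracellularly from a pBAD plasmid library in pooled LB shake-flask culture, induced with 0.3% L-arabinose, DNA abundance read by NGS, three biological replicates, DESeq2 with apeglm shrinkage.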

With RRIRQRPPRLPRPRPRPFKCPRP, the “shrunken log2 fold change” value worked out at 0.00905.
Then RRIRPRPPRLPRPRPRPFEEPRP, with -0.00852; and RRIRVRPPRLPRPRPRPTCCPRP, with 0.095; and RRIRHRPPRLPRPRPRPEDMPRP, with -0.208.
In the case of RRIRTRPPRLPRPRPRPFRIPRP, the “shrunken log2 fold change” value is -0.0114.
As to RRIRSRPPRLPRPRPRPLAQPRP, the “shrunken log2 fold change” value turned out to be 0.261.
Then RRIRHRPPRLPRPRPRPRWHPRP, with 0.102.
Then RRIRSRPPRLPRPRPRPERGPRP, with -0.0603.
With RRIRTRPPRLPRPRPRPPKDPRP the figure was -0.187; with RRIRFRPPRLPRPRPRPMWSPRP, -0.227; with RRIRRRPPRLPRPRPRPRYPPRP, 0.252.
For RRIRCRPPRLPRPRPRPNAHPRP, the “shrunken log2 fold change” value is -0.221.
Then RRIRARPPRLPRPRPRPMWEPRP, with -0.000921; and RRIRWRPPRLPRPRPRPRFTPRP, with 0.307.
Take RRIRYRPPRLPRPRPRPWVAPRP: the “shrunken log2 fold change” value is -0.481.
With RRIRERPPRLPRPRPRPKMRPRP, the “shrunken log2 fold change” value stood at 0.962.
For RRIRHRPPRLPRPRPRPVQFPRP, the “shrunken log2 fold change” value is -0.335.
Regarding RRIRFRPPRLPRPRPRPWFHPRP, the “shrunken log2 fold change” value is -0.714.
For RRIRNRPPRLPRPRPRPSCPPRP, the “shrunken log2 fold change” value was -0.4.
Regarding RRIRNRPPRLPRPRPRPEDWPRP, the “shrunken log2 fold change” value was -0.0232.
With RRIRGRPPRLPRPRPRPIFPPRP the figure was 0.553; with RRIRFRPPRLPRPRPRPYSHPRP, -1.77; with RRIRSRPPRLPRPRPRPLSSPRP, -0.329.
For the sequence RRIRWRPPRLPRPRPRPFDTPRP, the “shrunken log2 fold change” value is -0.113.
With RRIRVRPPRLPRPRPRPVIDPRP the figure was 0.0104; with RRIRQRPPRLPRPRPRPEFYPRP, -0.0478; with RRIRYRPPRLPRPRPRPELYPRP, -0.106.
With RRIRERPPRLPRPRPRPFAKPRP, the “shrunken log2 fold change” value was -0.386.
Take RRIRGRPPRLPRPRPRPERHPRP: the “shrunken log2 fold change” value was 0.834.
With RRIRKRPPRLPRPRPRPLHRPRP, the “shrunken log2 fold change” value was found to be 0.36.
Turning to RRIRARPPRLPRPRPRPMFQPRP, the “shrunken log2 fold change” value is -0.0957.
Then RRIRMRPPRLPRPRPRPKKLPRP, with 0.354; and RRIRERPPRLPRPRPRPADWPRP, with 0.349; and RRIRPRPPRLPRPRPRPRSAPRP, with 0.497.
On to RRIRYRPPRLPRPRPRPKELPRP, for which the “shrunken log2 fold change” value was -0.0199.
With RRIRRRPPRLPRPRPRPNMSPRP the figure was 2.14; with RRIRLRPPRLPRPRPRPQYKPRP, -1.05; with RRIRWRPPRLPRPRPRPNHKPRP, -0.37.
Consider RRIRNRPPRLPRPRPRPVYHPRP, for which the “shrunken log2 fold change” value was -0.0311.
Then RRIRLRPPRLPRPRPRPEIIPRP, with 0.179; and RRIRARPPRLPRPRPRPIKKPRP, with -0.00732; and RRIRGRPPRLPRPRPRPIVTPRP, with 0.583.
Then RRIRPRPPRLPRPRPRPGWYPRP, with 0.075; and RRIRLRPPRLPRPRPRPTREPRP, with 0.794; and RRIRVRPPRLPRPRPRPQWFPRP, with -0.134.
With RRIRERPPRLPRPRPRPINHPRP the figure was 0.198; with RRIRFRPPRLPRPRPRPVCAPRP, 0.198; with RRIRGRPPRLPRPRPRPTEQPRP, 0.883.
For the sequence RRIRWRPPRLPRPRPRPPWNPRP, the “shrunken log2 fold change” value is 0.279.
For the sequence RRIRPRPPRLPRPRPRPDERPRP, the “shrunken log2 fold change” value was -0.0865.
